Test results from the Human Domainome abundance scans (Beltran et al. 2025).
± gives the uncertainty stated by the source.

B1: Nuclear receptor subfamily 4 group A member 2, residues 260 to 336; numbered along this chain, P43354 (parent)
chain: EGLCAVCGDNAACQHYGVRTCEGCKGFFKRTVQKNAKYVCLANKNCPVDKRRRNRCQYCRFQKCLAVGMVKEVVRTD

Variants of: B1
Test: abundance fitness (aPCA) (normalised: wild type 0, dead -1); higher = more abundant; growth selection in yeast, the domain comes from the species named
Conditions: Homo sapiens

Row | Variant | abundance fitness
1 | V39Q | -0.244 ± 0.31
2 | D9G | 0.05 ± 0.2
3 | V67K | 0.086 ± 0.23
4 | V67H | -0.088 ± 0.3
5 | V67I | 0.058 ± 0.12
6 | V67L | -0.078 ± 0.058
7 | K50W | -0.031 ± 0.057
8 | C13V | 0.046 ± 0.061
9 | C13Y | -0.138 ± 0.36
10 | C13G | 0.057 ± 0.054
11 | N35W | -0.407 ± 0.12
12 | N35L | -0.085 ± 0.087
13 | N35I | -0.127 ± 0.27
14 | N35R | -0.136 ± 0.088
15 | C46R | -1.07 ± 0.22
16 | C46A | -1.16 ± 0.37
17 | K44Y | -0.053 ± 0.37
18 | K44C | -0.464 ± 0.21
19 | K44W | -0.126 ± 0.17
20 | K44G | -0.052 ± 0.09
21 | K44D | -0.093 ± 0.16
22 | R30T | -0.028 ± 0.13
23 | R30M | -0.148 ± 0.2
24 | R30C | -0.086 ± 0.19

Row | Variant | abundance fitness
25 | R30Q | -0.005 ± 0.13
26 | Q57P | 0.187 ± 0.25
27 | Q57E | -0.083 ± 0.11
28 | A66D | 0.135 ± 0.11
29 | A66N | 0.101 ± 0.45
30 | A66M | -0.032 ± 0.2
31 | A66I | -0.099 ± 0.28
32 | A66E | -0.051 ± 0.14
33 | A5L | 0.219 ± 0.22
34 | R53V | 0.019 ± 0.042
35 | R53S | 0.084 ± 0.084
36 | V73W | -0.104 ± 0.053
37 | G26S | -0.218 ± 0.089
38 | R75C | 0.057 ± 0.055
39 | Y38C | -0.026 ± 0.49
40 | H15T | 0.01 ± 0.12
41 | H15L | -0.014 ± 0.07
42 | H15R | -0.137 ± 0.053
43 | H15A | -0.138 ± 0.084
44 | C59V | -0.919 ± 0.096
45 | C59W | -1.33 ± 0.22
46 | C59R | -1.17 ± 0.2
47 | C59F | -1.03 ± 0.22
48 | C59E | -0.318 ± 0.29

Row | Variant | abundance fitness
49 | K63V | -0.304 ± 0.046
50 | E72V | -0.268 ± 0.049
51 | E72I | -0.173 ± 0.18
52 | G17R | -0.173 ± 0.094
53 | G17S | -0.371 ± 0.17
54 | G17E | -0.116 ± 0.19
55 | Y58G | -0.298 ± 0.041
56 | Y58W | -0.063 ± 0.052
57 | Y58S | 0.129 ± 0.078
58 | Y58C | -0.173 ± 0.064
59 | D77V | -0.122 ± 0.065
60 | D77W | -0.211 ± 0.075
61 | D77A | -0.006 ± 0.086
62 | D77I | -0.347 ± 0.31
63 | Q62F | -0.31 ± 0.14
64 | Q62D | -0.139 ± 0.23
65 | Q62S | 0.018 ± 0.12
66 | Q62N | -0.38 ± 0.34
67 | Q62C | -0.153 ± 0.064
68 | F27I | -0.705 ± 0.47
69 | F27L | -0.431 ± 0.085
70 | F27W | -0.126 ± 0.071
71 | F27M | -0.584 ± 0.2
72 | C24R | -0.954 ± 0.43

Row | Variant | abundance fitness
73 | V48G | -0.493 ± 0.041
74 | V48F | -0.407 ± 0.11
75 | Q14E | -0.129 ± 0.095
76 | Q14W | 0.017 ± 0.088
77 | V32L | -0.511 ± 0.41
78 | V32A | 0.211 ± 0.23
79 | T31R | -0.126 ± 0.22
80 | G68D | -0.403 ± 0.15
81 | P47F | -0.183 ± 0.1
82 | P47L | -0.004 ± 0.063
83 | P47G | -0.085 ± 0.037
84 | P47D | 0.106 ± 0.098
85 | R55E | -0.035 ± 0.12
86 | R55S | -0.164 ± 0.1
87 | D49C | -0.67 ± 0.14
88 | A42N | -0.452 ± 0.49
89 | A42R | -0.255 ± 0.12
90 | A42V | -0.09 ± 0.14
91 | A42M | -0.208 ± 0.43
92 | A42G | -0.09 ± 0.28
93 | R60E | -0.651 ± 0.18
94 | R60W | 0.014 ± 0.05
95 | R60F | -0.115 ± 0.12
96 | K25Y | -0.503 ± 0.31

Row | Variant | abundance fitness
97 | K25E | 0.049 ± 0.1
98 | M69D | -0.704 ± 0.27
99 | M69G | -0.463 ± 0.042
100 | M69W | -0.235 ± 0.053
101 | M69E | -0.448 ± 0.17
102 | V70M | -0.055 ± 0.18
103 | V70E | 0.062 ± 0.096
104 | R52F | -0.08 ± 0.094
105 | R52G | 0.065 ± 0.036
106 | L3F | -0.026 ± 0.34
107 | V74W | -0.208 ± 0.066
108 | V74S | -0.101 ± 0.12
109 | V74A | -0.1 ± 0.1
110 | V74L | -0.052 ± 0.065
111 | G8L | 0.457 ± 0.39
112 | G8D | -0.459 ± 0.24
113 | Y16N | 0.029 ± 0.14
114 | Y16P | -0.112 ± 0.15
115 | Y16M | 0.383 ± 0.46
116 | K34C | -0.033 ± 0.41
117 | K34V | -0.037 ± 0.23
118 | R19F | 0.14 ± 0.13
119 | R19W | -0.053 ± 0.077
120 | R19V | 0.005 ± 0.062

Row | Variant | abundance fitness
121 | R19D | -0.202 ± 0.27
122 | R19M | -0.175 ± 0.089
123 | R19N | 0.182 ± 0.15
124 | T76K | -0.041 ± 0.18
125 | T76V | -0.019 ± 0.052
126 | T76Q | -0.152 ± 0.19
127 | T76W | -0.085 ± 0.053
128 | T76C | 0.109 ± 0.057
129 | E22Q | 0.089 ± 0.19
130 | E22H | -0.02 ± 0.13
131 | N54S | 0.148 ± 0.091
132 | N54Q | -0.032 ± 0.24
133 | N54E | -0.244 ± 0.24
134 | N54T | -0.555 ± 0.47
135 | N54G | 0.06 ± 0.038
136 | N54A | -0.148 ± 0.14
137 | K29D | 0.11 ± 0.21
138 | K29H | 0.071 ± 0.17
139 | K29P | -0.126 ± 0.2
140 | K37S | -0.213 ± 0.13
141 | K37F | -0.362 ± 0.48
142 | K37V | -0.118 ± 0.1
143 | K37A | -0.197 ± 0.11
144 | G23C | 0.065 ± 0.27

Row | Variant | abundance fitness
145 | G23K | 0.106 ± 0.19
146 | R51W | 0.054 ± 0.051
147 | R51L | 0.042 ± 0.056
148 | L65A | -0.146 ± 0.081
149 | L65G | -0.264 ± 0.037
150 | L65M | -0.262 ± 0.15
151 | F61I | 0.007 ± 0.26
152 | N43F | 0.046 ± 0.46
153 | C56F | -1.21 ± 0.38
154 | L41T | -0.08 ± 0.22
155 | L41S | -0.072 ± 0.16
156 | L41P | 0.241 ± 0.27
157 | L41A | -0.025 ± 0.29
158 | A36F | 0.458 ± 0.19
159 | A36C | -0.017 ± 0.14
160 | A36K | -0.291 ± 0.26
161 | C64S | -0.397 ± 0.16
162 | C64G | -0.277 ± 0.035
163 | F28D | -0.747 ± 0.5
164 | F28C | -0.483 ± 0.36
165 | F28Y | 0.23 ± 0.26
166 | F28H | -0.114 ± 0.29
167 | F28K | -0.981 ± 0.33
